# Measurements as given in patent publication US20240261333A1, “NOVEL TARGETS FOR ENHANCING ANTI-TUMOR IMMUNITY” (THE BROAD INSTITUTE, INC., priority 2021, published 2024).
# T1: B3GNT2 (Homo sapiens, UniProt Q9NY97)
# T1 construct: The respective ORFs of candidate genes [CD274 (NM_014143), MCL1 (NM_021960), JUNB (NM_002229), and B3GNT2 (NM_006577)] were synthesized; expressed in transfected cells; host or cells: A375 melanoma cells (lentiviral ORF overexpression)
# T1 sequence (Q9NY97 1-397): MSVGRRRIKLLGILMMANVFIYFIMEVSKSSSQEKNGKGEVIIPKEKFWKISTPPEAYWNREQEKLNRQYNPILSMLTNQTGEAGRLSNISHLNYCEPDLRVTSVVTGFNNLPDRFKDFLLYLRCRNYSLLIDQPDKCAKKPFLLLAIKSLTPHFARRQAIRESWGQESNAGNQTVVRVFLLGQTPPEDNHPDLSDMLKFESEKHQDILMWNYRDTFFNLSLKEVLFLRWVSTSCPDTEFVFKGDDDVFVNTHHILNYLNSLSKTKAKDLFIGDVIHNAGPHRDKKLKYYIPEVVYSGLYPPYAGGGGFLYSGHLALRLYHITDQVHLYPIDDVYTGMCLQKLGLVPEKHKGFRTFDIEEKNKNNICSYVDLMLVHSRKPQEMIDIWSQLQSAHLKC
# Target: T1, B3GNT2
# Experiment: Co-IP of FLAG-tagged B3GNT2 followed by mass spectrometry
# Format: cell-based
# Design: C-term IgG / C-term flag: unit not given here
# How it was run: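 Co-purifying proteins were identified by fractionated nano-LC–MS/MS on an Orbitrap Elite, run data-dependent. Beforehand, lysates in 1% Triton X-100/HEPES buffer were incubated overnight at 4° C with anti-FLAG or […] and pulled down on Protein A/G magnetic beads for 4 h. Duplicate biological replicates.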
# [1] = Co-IP followed by mass spectrometry of B3GNT2, C-term tag, FLAG pull-down
# [2] = Co-IP followed by mass spectrometry of B3GNT2, C-term tag, IgG pull-down
# [3] = Co-IP followed by mass spectrometry of B3GNT2, N-term tag, FLAG pull-down
# [4] = Co-IP followed by mass spectrometry of B3GNT2, N-term tag, IgG pull-down
Molecule,C-term flag [1],C-term IgG [2],N-term FLAG [3],N-term IgG [4],"C-term flag (Co-IP with FLAG antibody, C-terminally FLAG-tagged B3GNT2, mass spectrometry count, unit not given)","N-term FLAG (Co-IP with FLAG antibody, N-terminally FLAG-tagged B3GNT2, mass spectrometry count, unit not given)","C-term IgG (Co-IP with IgG control antibody, C-terminally FLAG-tagged B3GNT2, mass spectrometry count, unit not given)","N-term IgG (Co-IP with IgG control antibody, N-terminally FLAG-tagged B3GNT2, mass spectrometry count, unit not given)"
CHCHD3 (protein) GGTTSTRRVTFEADENENITVVKGIRLSENVIDRMKESSPSGSKSQRYSGAYGASVSDEELKRRVAEELALEQAKKESEDQKRLKQAKELDRERAAANEQLTRAILRERICSEEERAKAKHLARQLEEKDRVLKKQDAFYKEQLARLEERSSEFYRVTTEQYQKAAEEVEAKFKRYESHPVCADLQAKILQCYRENTHQTLKCSALATQYMHCVNHAKQSMLEKGG,15,11,16,10,,,,
GEMIN4 (protein) MDLGPLNICEEMTILHGGFLLAEQLFHPKALAELTKSDWERVGRPIVEALREISSAAAHSQPFAWKKKALIIIWAKVLQPHPVTPSDTETRWQEDLFFSVGNMIPTINHTILFELLKSLEASGLFIQLLMALPTTICHAELERFLEHVTVDTSAEDVAFFLDVWWEVMKHKGHPQDPLLSQFSAMAHKYLPALDEFPHPPKRLRSDPDACPTMPLLAMLLRGLTQIQSRILGPGRKCCALANLADMLTVFALTEDDPQEVSATVYLDKLATVISVWNSDTQNPYHQQALAEKVKEAERDVSLTSLAKLPSETIFVGCEFLHHLLREWGEELQAVLRSSQGTSYDSYRLCDSLTSFSQNATLYLNRTSLSKEDRQVVSELAECVRDFLRKTSTVLKNRALEDITASIAMAVIQQKMDRHMEVCYIFASEKKWAFSDEWVACLGSNRALFRQPDLVLRLLETVIDVSTADRAIPESQIRQVIHLILECYADLSLPGKNKVLAGILRSWGRKGLSEKLLAYVEGFQEDLNTTFNQLTQSASEQGLAKAVASVARLVIVHPEVTVKKMCSLAVVNLGTHKFLAQILTAFPALRFVEEQGPNSSATFMVSCLKETVWMKFSTPKEEKQFLELLNCLMSPVKPQGIPVAALLEPDEVLKEFVLPFLRLDVEEVDLSLRIFIQTLEANACREEYWLQTCSPFPLLFSLCQLLDRFSKYWQLPKEKRCLSLDRKDLAIHILELLCEIVSANAETFSPDVWIKSLSWLHRKLEQLDWTVGLRLKSFFEGHFKCEVPATLFEICKLSEDEWTSQAHPGYGAGTGLLAWMECCCVSSGISERMLSLLVVDVGNPEEVRLFSKGFLVALVQVMPWCSPQEWQRLHQLTRRLLEKQLLHVPYSLEYIQFVPLLNLKPFAQELQLSVLFLRTFQFLCSHSCRDWLPLEGWNHVVKLLCGSLTRLLDSVRAIQAAGPWVQGPEQDLTQEALFVYTQVFCHALHIMAMLHPEVCEPLYVLALETLTCYETLSKTNPSVSSLLQRAHEQRFLKSIAEGIGPEERRQTLLQKMSSF,5,0,0,0,,,,
IMMT (protein) STSGSSGLTTGKIAGAGLLFVGGGIGGTILYAKWDSHFRESVEKTIPYSDKLFEMVLGPAAYNVPLPKKSIQSGPLKISSVSEVMKESKQPASQLQKQKGDTPASATAPTEAAQIISAAGDTLSVPAPAVQPEESLKTDHPEIGEGKPTPALSEASSSSIRERPPEEVAARLAQQEKQEQVKIESLAKSLEDALRQTASVTLQAIAAQNAAVQAVNAHSNILKAAMDNSEIAGEKKSAQWRTVEGALKERRKAVDEAADALLKAKEELEKMKSVIENAKKKEVAGAKPHITAAEGKLHNMIVDLDNVVKKVQAAQSEAKVVSQYHELVVQARDDFKRELDSITPEVLPGWKGMSVSDLADKLSTDDLNSLIAHAHRRIDQLNRELAEQKATEKQHITLALEKQKLEEKRAFDSAVAKALEHHRSEIQAEQDRKIEEVRDAMENEMRTQLRRQAAAHTDHLRDVLRVQEQELKSEFEQNLSEKLSEQELQFRRLSQEQVDNFTLDINTAYARLRGIEQAVQSHAVAEEEARKAHQLWLSVEALKYSMKTSSAETPTIPLGSAVEAIKANCSDNEFTQALTAAIPPESLTRGVYSEETLRARFYAVQKLARRVAMIDETRNSLYQYFLSYLQSLLLFPPQQLKPPPELCPEDINTFKLLSYASYCIEHGDLELAAKFVNQLKGESRRVAQDWLKEARMTLETKQIVEILTAYASAVGIGTTQVQPE,26,16,23,17,,,,
"MAP4 (protein, UniProt P27816 2-1152, looked up) Microtubule-associated …: ADLSLADALTEPSPDIEGEIKRDFIATLEAEAFDDVVGETVGKTDYIPLLDVDEKTGNSESKKKPCSETSQIEDTPSSKPTLLANGGHGVEGSDTTGSPTEFLEEKMAYQEYPNSQNWPEDTNFCFQPEQVVDPIQTDPFKMYHDDDLADLVFPSSATADTSIFAGQNDPLKDSYGMSPCNTAVVPQGWSVEALNSPHSESFVSPEAVAEPPQPTAVPLELAKEIEMASEERPPAQALEIMMGLKTTDMAPSKETEMALAKDMALATKTEVALAKDMESPTKLDVTLAKDMQPSMESDMALVKDMELPTEKEVALVKDVRWPTETDVSSAKNVVLPTETEVAPAKDVTLLKETERASPIKMDLAPSKDMGPPKENKKETERASPIKMDLAPSKDMGPPKENKIVPAKDLVLLSEIEVAQANDIISSTEISSAEKVALSSETEVALARDMTLPPETNVILTKDKALPLEAEVAPVKDMAQLPETEIAPAKDVAPSTVKEVGLLKDMSPLSETEMALGKDVTPPPETEVVLIKNVCLPPEMEVALTEDQVPALKTEAPLAKDGVLTLANNVTPAKDVPPLSETEATPVPIKDMEIAQTQKGISEDSHLESLQDVGQSAAPTFMISPETVTGTGKKCSLPAEEDSVLEKLGERKPCNSQPSELSSETSGIARPEEGRPVVSGTGNDITTPPNKELPPSPEKKTKPLATTQPAKTSTSKAKTQPTSLPKQPAPTTIGGLNKKPMSLASGLVPAAPPKRPAVASARPSILPSKDVKPKPIADAKAPEKRASPSKPASAPASRSGSKSTQTVAKTTTAAAVASTGPSSRSPSTLLPKKPTAIKTEGKPAEVKKMTAKSVPADLSRPKSTSTSSMKKTTTLSGTAPAAGVVPSRVKATPMPSRPSTTPFIDKKPTSAKPSSTTPRLSRLATNTSAPDLKNVRSKVGSTENIKHQPGGGRAKVEKKTEAAATTRKPESNAVTKTAGPIASAQKQPAGKVQIVSKKVSYSHIQSKCGSKDNIKHVPGGGNVQIQNKKVDISKVSSKCGSKANIKHKPGGGDVKIESQKLNFKEKAQAKVGSLDNVGHLPAGGAVKTEGGGSEAPLCPGPPAGEEPAISEAAPEAGAPTSASGLNGHPTLSGGGDQREAQTLDSQIQETSI",5,0,0,0,,,,
PDIA3 (protein) SDVLELTDDNFESRISDTGSAGLMLVEFFAPWCGHCKRLAPEYEAAATRLKGIVPLAKVDCTANTNTCNKYGVSGYPTLKIFRDGEEAGAYDGPRTADGIVSHLKKQAGPASVPLRTEEEFKKFISDKDASIVGFFDDSFSEAHSEFLKAASNLRDNYRFAHTNVESLVNEYDDNGEGIILFRPSHLTNKFEDKTVAYTEQKMTSGKIKKFIQENIFGICPHMTEDNKDLIQGKDLLIAYYDVDYEKNAKGSNYWRNRVMMVAKKFLDAGHKLNFAVASRKTFSHELSDFGLESTAGEIPVVAIRTAKGEKFVMQEEFSRDGKALERFLQDYFDGNLKRYLKSEPIPESNDGPVKVVVAENFDEIVNNENKDVLIEFYAPWCGHCKNLEPKYKELGEKLSKDPNIVIAKMDATANDVPSPYEVRGFPTIYFSPANKKLNPKKYEGGRELSDFISYLQREATNPPVIQEEKPKKKKKAQEDL,,,,,24,14,0,0
IL13RA2 (protein) DTEIKVNPPQDFEIVDPGYLGYLYLQWQPPLSLDHFKECTVEYELKYRNIGSETWKTIITKNLHYKDGFDLNKGIEAKIHTLLPWQCTNGSEVQSSWAETTYWISPQGIPETKVQDMDCVYYNWQYLLCSWKPGIGVLLDTNYNLFYWYEGLDHALQCVDYIKADGQNIGCRFPYLEASDYKDFYICVNGSSENKPIRSSYFTFQLQNIVKPLPPVYLTFTRESSCEIKLKWSIPLGPIPARCFDYEIEIREDDTTLVTATVENETYTLKTTNETRQLCFVVRSKVNIYCSDDGIWSEWSDKQCWEGEDLSKKTLLRFWLPFGFILILVIFVTGLLLRKPNTYPKMIPEFFCDT,2,0,3,0,,,,
